{"source": "patent US20090047262", "key": {"[1]": {"system": "T1, FLAG epitope-tagged CIITA IF1 protein (f:CIITA1)", "T1 sequence": "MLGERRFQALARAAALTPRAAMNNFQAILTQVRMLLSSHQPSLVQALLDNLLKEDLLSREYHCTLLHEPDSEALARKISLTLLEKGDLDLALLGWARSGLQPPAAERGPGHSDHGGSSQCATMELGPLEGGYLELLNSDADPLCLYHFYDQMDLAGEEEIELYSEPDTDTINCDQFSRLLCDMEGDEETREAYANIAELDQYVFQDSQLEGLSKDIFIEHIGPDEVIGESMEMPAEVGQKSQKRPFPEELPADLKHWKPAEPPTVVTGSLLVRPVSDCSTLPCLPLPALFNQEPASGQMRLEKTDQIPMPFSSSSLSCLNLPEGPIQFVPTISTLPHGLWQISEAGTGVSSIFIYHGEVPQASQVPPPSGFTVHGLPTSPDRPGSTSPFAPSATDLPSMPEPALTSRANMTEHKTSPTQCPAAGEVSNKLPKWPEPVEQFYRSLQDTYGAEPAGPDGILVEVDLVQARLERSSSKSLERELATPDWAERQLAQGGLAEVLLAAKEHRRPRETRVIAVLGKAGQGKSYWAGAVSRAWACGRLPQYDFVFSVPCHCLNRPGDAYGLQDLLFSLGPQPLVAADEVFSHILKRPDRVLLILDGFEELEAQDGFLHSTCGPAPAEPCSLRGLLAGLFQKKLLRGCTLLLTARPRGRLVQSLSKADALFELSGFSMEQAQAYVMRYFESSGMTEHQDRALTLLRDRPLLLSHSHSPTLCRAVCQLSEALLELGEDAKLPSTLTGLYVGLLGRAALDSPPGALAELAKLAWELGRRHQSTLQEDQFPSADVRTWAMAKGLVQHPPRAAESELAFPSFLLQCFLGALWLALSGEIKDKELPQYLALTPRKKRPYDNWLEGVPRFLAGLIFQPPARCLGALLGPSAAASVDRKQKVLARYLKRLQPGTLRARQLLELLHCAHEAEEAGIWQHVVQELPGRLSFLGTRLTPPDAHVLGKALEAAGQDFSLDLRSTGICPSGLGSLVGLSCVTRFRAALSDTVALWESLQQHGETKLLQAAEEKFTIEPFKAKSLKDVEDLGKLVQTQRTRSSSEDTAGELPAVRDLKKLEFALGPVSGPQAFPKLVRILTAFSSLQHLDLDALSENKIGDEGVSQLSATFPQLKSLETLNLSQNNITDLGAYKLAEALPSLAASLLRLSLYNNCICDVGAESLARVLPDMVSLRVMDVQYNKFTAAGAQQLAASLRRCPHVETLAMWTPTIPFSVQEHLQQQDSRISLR"}, "[2]": {"system": "mutant f:CIITA1(S357A) protein (FLAG epitope-tagged CIITA isoform 1 with serine 357 changed to alanine)"}}, "data": [{"substance": "Erk1/2 kinase", "values": [{"measurement": "in vitro kinase assay, appearance of the upper (phosphorylated) band", "setting": "[1]", "value": "as indicated by the appearance of the upper band, Erk1/2 phosphorylated f:CIITA1 protein"}, {"measurement": "in vitro kinase assay, appearance of the upper (phosphorylated) band", "setting": "[2]", "value": "Erk1/2 did not phosphorylate the mutant f:CIITA1(S357A) protein, which was confirmed by the absence of the upper band"}]}]}
